In PMC7906036 (Nature, 2020):
Read-outs that look alike come from different tables or passages of the source. Each block holds one molecule with its values, some of them ahead of it.

Tests used:
[1] = biological target: human ferroportin (wild type) (human) (UniProt Q9NP59); test: fluorescence polarisation
[2] = biological target: human ferroportin (wild type) (human) (UniProt Q9NP59); test: fluorescence polarisation; remark: listed apart in the source
[3] = biological target: human ferroportin (wild type) (human) (UniProt Q9NP59); test: fluorescence polarisation; remark: listed apart in the source
Rhodamine green-hepcidin = biological target: T1, Rhodamine green-hepcidin (Homo sapiens, not fully specified; rhodamine green at position 17); test: fluorescence polarisation
T1 chain: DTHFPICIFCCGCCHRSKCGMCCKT

[4] = biological target: human ferroportin (wild type) (human, UniProt Q9NP59); test: SEC
human ferroportin (wild type), sequence (Q9NP59 whole entry): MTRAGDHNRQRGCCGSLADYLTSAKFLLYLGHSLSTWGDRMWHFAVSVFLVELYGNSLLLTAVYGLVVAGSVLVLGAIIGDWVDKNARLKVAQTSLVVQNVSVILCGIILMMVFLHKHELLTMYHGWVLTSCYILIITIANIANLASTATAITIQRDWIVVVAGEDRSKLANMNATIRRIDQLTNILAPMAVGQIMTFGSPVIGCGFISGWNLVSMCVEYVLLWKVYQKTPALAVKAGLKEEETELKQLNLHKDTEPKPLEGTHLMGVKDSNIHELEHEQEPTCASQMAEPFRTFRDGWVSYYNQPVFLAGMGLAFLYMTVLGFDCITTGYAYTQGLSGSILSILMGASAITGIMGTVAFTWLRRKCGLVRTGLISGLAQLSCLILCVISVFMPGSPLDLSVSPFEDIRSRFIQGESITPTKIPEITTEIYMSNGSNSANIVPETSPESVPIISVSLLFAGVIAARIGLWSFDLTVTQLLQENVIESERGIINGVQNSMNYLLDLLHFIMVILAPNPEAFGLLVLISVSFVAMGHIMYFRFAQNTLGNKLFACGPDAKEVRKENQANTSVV

human ferroportin (wild type) (human), sequence (Q9NP59 whole entry): as above

Kd [1]: 7.7 nM
Kd [2]: 2.5 nM
Kd [3]: 210 nM
Molecule: Rhodamine green-hepcidin (peptide)

binding result (Rhodamine green-hepcidin): no binding
binding result [4]: binds
B1: Fab45D8 (Fab, V domains shown)
VH: EVQLQESGPGLAKPSQTLSLTCSVTGSSITSDYWNWIRKFPGNKLEYMGYISYSGSTYYNPSLKSQISITRDTSKNHYYLQLNSVTTEDTATYYCARQGLRNWYFDVWGTGTTVTVSS
VL: DIVLTQSPASLPVSLGQRATISCRASKSVSASAYSYMHWYQQKPGQPPKPLIYLASNLESGVPARFSGSGSGTDFTLNIHPVEEEDAATYYCQHNRELPYTFGGGTKLEIK
